Consider 15 molecules from US20180327803A1.

Changes are numbered by the printed parent chain.

In test [1] the target is human IgG1 antibody (#I5154; Sigma-Aldrich) (human). Briefly: ELISA.
Test [2] has as its target human IgG3 antibody (#I5654; Sigma-Aldrich) (human). Briefly: ELISA.
The target in test [3] is human serum-derived IgA polyclonal antibody (#I4036; Sigma-Aldrich) (human). The test can be described thus: ELISA. (In general: An ELISA detects its analyte on a solid surface through an enzyme-linked reagent.)
Test [4] has as its target human serum-derived IgG polyclonal antibody (#I4506; Sigma-Aldrich) (human). The test can be described thus: SPR, lysate, human IgG chip. In general terms: Surface plasmon resonance follows binding to a sensor surface in real time, without labels.
Test [5] addresses human IgG2 antibody (#I5404; Sigma-Aldrich) (human). The test can be described thus: ELISA.
Test [6] has as its target human IgG4 antibody (#I4639; Sigma-Aldrich) (human). The test can be described thus: ELISA.
Test [7] has as its target human serum-derived IgG polyclonal antibody (#I4506; Sigma-Aldrich) (human). Briefly: ELISA.
Test [8] addresses human IgG1 antibody (#I5154; Sigma-Aldrich) (human). The test can be described thus: SPR, single cycle kinetics, IgG1 chip.

B1: R2-18 (scFv, not shown: small tags and cut ends)
scFv: QSLEESGGRLVTPGTPLTLTCTVSGIDLSSNAMTWVRQAPGEGLEWIGTISTGGSTYFASWAKGRFTISKTSTTVDLKITSPTTEDTATYFCATRYDSYGYAYNYWFGTLWGPGTLVTVTSGGGGSGGGGSGGGGSELVMTQTAASVSEPVGGTVTIKCQASQNINNELAWYQQKPGQRPKLLIYDASKLASGVPSRFSGSGSGTEFTLTISGMQCDDAATYYCQSTYYDGNYVYAFGGGTEVDVKGS
As to B1, the OD in test [1] turned out to be 3.11; in test [2], 3.08; in test [3], 3.11. The dissociation rate constant (koff) (as a rule, a measure of how fast the partners let go of each other) in test [4] turned out to be 0.0008 s⁻¹.

B2: R3-8 (scFv, not shown: small tags and cut ends)
scFv: B1 scFv with K158N, N164S, N166S, N167D, K189D, M214V, T227A, N232R, D244E, K246T
For B2, the OD in test [5] is 3.02; in test [6], 3.09; in test [1] it was 3.03; in test [2] it was 3.06; in test [3], 3.06; in test [7], 3.01. The molecule also displayed a koff in test [4] of 0.00088 s⁻¹.

B3: R2-16 rabbit-derived single-chain antibody-His (scFv)
scFv: QSVKESGGRLVTPGTPLTLTCTVSGFSLSSYAMGWVRQAPGKGLEYIGIISSSGSTYYASWAKGRFTISKTSTTVDLKITSPTTEDTATYFCARYSGDNGGALNLWGPGTLVTVTSGGGGSGGGGSGGGGSELDLTQTAASVSEPVGGTVTISCQSSQHIRSYLAWYQQKPGQPPKLLISAASTLASGVSSRFKGSGSGTEFTLTISDLECADAATYYCQRYYDIRNYGNGFGGGTEVEITGSHHHHHH
As for B3, in test [8], the dissociation constant (Kd) – broadly, the constant that tells how readily two partners part at equilibrium – came to 2.5 nM; the koff came out at 0.00032 s⁻¹; the kon (commonly the rate constant with which the complex forms) worked out at 130000 M⁻¹ s⁻¹.

B4: R3-23 rabbit-derived single-chain antibody-His (scFv)
scFv: QSVKESEGRLVTPGTPLTLTCTVSGFSLSRYAVSWVRQAPGKGLEWIGIIGSGGSTSYATWARGRFTISKTSTTVDLKITSPTTEDTVTYFCGSYYDSHGYAYVSLWGPGTLVTVTSGGGGSGGGGSGGGGSELVLTQTPSPVSGAVGGTVTINCQASQSISTALAWYQQKPGQPPKLLIYSASTLASGVSSRFKGSGSGTGFTLTISDLECADAATYYCQSYYGSSSDNAFGGGTEVVIKRSHHHHHH
In test [8], B4 came in with a Kd of 11 nM, a koff of 0.00013 s⁻¹ and a kon of 11000 M⁻¹ s⁻¹.

B5: R1-27 (scFv, not shown: small tags and cut ends)
scFv: QQQLMESGGGLVTPGTPLTLTCTVSGIDLRRYAMGWVRQAPGKGLQWIGIIASGNTDYASWAKGRFTISATSTTVDLKITSSTTEDTATYFCARYSGDNGGTLNLWGPGTLATVTTGGGGSGGGGSGGGGSELVMTQTAASVSEPVGGTVTIKCQASEHIRNYLAWYQQKPGQPPKLLIYTTSNLASGVPSRFSGSGSGTEYTLTISDLECADAATYYCQNYYDISTYGNTFGGGTEVDVKGS
Regarding B5, the OD in test [1] was 3.07; in test [2], 3.08. For the same molecule, in test [4], the koff stood at 0.000859 s⁻¹.

B6: R2-16 (scFv, not shown: small tags and cut ends)
scFv: QSVKESGGRLVTPGTPLTLTCTVSGFSLSSYAMGWVRQAPGKGLEYIGIISSSGSTYYASWAKGRFTISKTSTTVDLKITSPTTEDTATYFCARYSGDNGGALNLWGPGTLVTVTSGGGGSGGGGSGGGGSELDLTQTAASVSEPVGGTVTISCQSSQHIRSYLAWYQQKPGQPPKLLISAASTLASGVSSRFKGSGSGTEFTLTISDLECADAATYYCQRYYDIRNYGNGFGGGTEVEITGS
With B6, the figures for the OD in test [1] and in test [2] were 3.12 and 3.05, respectively. The koff in test [4] is 0.000838 s⁻¹.

B7: R3-75 (scFv, not shown: small tags and cut ends)
scFv: QSVKESGGRLVTPGTPLTLTCTVSGIDLSSNAMSWVRQAPGEGLEWIGTISTVGKTYFASWAKGRFTISKTSTTVDLRITSPTTEDTATYFCATRYDSYGYAYNYWFGTLWGPGTLVTVTSGGGGSGGGGSGGGGSELDLTQTPPSVSGAVGGTVTIKCQASENINSELAWYQQKPGQRPKLLIYDASKLASGVPSRFSGSGSGTEYTLTISGMQCDDAATYYCQSTYYDGNYVYAFGGGTEVDVTRS
Turning to B7, the OD in test [5] amounted to 3.04; in test [6], 3.11; in test [1], 3.05; in test [2] it was 3.12; in test [3] it was 3.06; in test [7] it was 3.01. The koff in test [4] is 0.000278 s⁻¹.

B8: R1-7 rabbit-derived single-chain antibody-His (scFv)
scFv: QSLEESGGRLVTPGTPLTLTCTVSGIDLRRYAMGWVRQAPGKGLQWIGIIASGNTDYASWAKGRFTISATSTTVDLKITSPTTEDTATYFCARYSGDNGGTLNLWGPGTLVTVTSGGGGSGGGGSGGGGSELVMTQTAASVSEPVGGTVTIKCQASQSISSYLAWYQQKPGQPPKLLIYAASNLASGVSSRFKGSGSGTEFTLTISDLECADAATYYCQSYYSISSYGNTFGGGTEVEITGSHHHHHH
In test [8], B8 registered a dissociation constant (Kd) of 24 nM, an off-rate (koff) of 0.0017 s⁻¹ and a kon of 71000 M⁻¹ s⁻¹.

B9: R3-58 (scFv, not shown: small tags and cut ends)
scFv: QQQLMESGGRLVTPGGSLTLTCTVSGIDLNSYAMGWVRQAPGKGLEYIGIIRNSGNTYYASWAKGRFTISKTSSTTVDLKMTSLTTEDTATYFCARYSGDNGGALNLWGPGTLVTVTSGGGGSGGGGSGGGGSELVMTQTAASVSGPVGGTVTIKCQASEFIRNYLAWYQQKPGQPPKLLIYTTSNLASGVPSRFSGSGSGTEYTLTISDLECADAATYYCQNYYDISTYGNAFGGGTEVVVIKGS
As for B9, the OD in test [5] was 3.08; in test [6] it was 3.17; in test [1], 3.14; in test [2] it was 3.11; in test [7], 3.05. In addition, the off-rate (koff) in test [4] is 0.000742 s⁻¹.

B10: R3-26 (scFv, not shown: small tags and cut ends)
scFv: QEQLVESGGGLVKPGGTLTLTCTVSGIDLSSYAMSWVRQVPGKGLEWIGIIGSGGGTAYANWAKGRFTISKTSSTTVDLKMTSLTTEDTATYFCATDYGIYGYAYGHLWGPGTLVTVTSGGGGSGGGGSGGGGSELVMTQTASPVSAAVGGTVTIKCQASQSISTALAWYQQRPGQPPKLLIYDASTLASGVSSRFKGSGSGTEFTLTISDLECADAATYYCQTYFGSDTDNAFGEGTEVEITGS
For B10, the OD in test [5] was 3.04; in test [6], 3.16; in test [1], 3.1; in test [2] it was 3.14; in test [7], 3.1. This molecule also returned an off-rate (koff) in test [4] of 0.000571 s⁻¹.

B11: R1-27 rabbit-derived single-chain antibody-His (scFv)
scFv: QQQLMESGGGLVTPGTPLTLTCTVSGIDLRRYAMGWVRQAPGKGLQWIGIIASGNTDYASWAKGRFTISATSTTVDLKITSSTTEDTATYFCARYSGDNGGTLNLWGPGTLATVTTGGGGSGGGGSGGGGSELVMTQTAASVSEPVGGTVTIKCQASEHIRNYLAWYQQKPGQPPKLLIYTTSNLASGVPSRFSGSGSGTEYTLTISDLECADAATYYCQNYYDISTYGNTFGGGTEVDVKGSHHHHHH
In test [8], B11 had a Kd of 40 nM, a koff of 0.0004 s⁻¹ and an on-rate (kon) of 9900 M⁻¹ s⁻¹.

B12: R2-18 rabbit-derived single-chain antibody-His (scFv)
scFv: QSLEESGGRLVTPGTPLTLTCTVSGIDLSSNAMTWVRQAPGEGLEWIGTISTGGSTYFASWAKGRFTISKTSTTVDLKITSPTTEDTATYFCATRYDSYGYAYNYWFGTLWGPGTLVTVTSGGGGSGGGGSGGGGSELVMTQTAASVSEPVGGTVTIKCQASQNINNELAWYQQKPGQRPKLLIYDASKLASGVPSRFSGSGSGTEFTLTISGMQCDDAATYYCQSTYYDGNYVYAFGGGTEVDVKGSHHHHHH
In test [8], B12 displayed a Kd of 4.8 nM, a koff of 0.00012 s⁻¹ and an on-rate constant (kon) of 25000 M⁻¹ s⁻¹.

B13: R1-7 (scFv, not shown: small tags and cut ends)
scFv: QSLEESGGRLVTPGTPLTLTCTVSGIDLRRYAMGWVRQAPGKGLQWIGIIASGNTDYASWAKGRFTISATSTTVDLKITSPTTEDTATYFCARYSGDNGGTLNLWGPGTLVTVTSGGGGSGGGGSGGGGSELVMTQTAASVSEPVGGTVTIKCQASQSISSYLAWYQQKPGQPPKLLIYAASNLASGVSSRFKGSGSGTEFTLTISDLECADAATYYCQSYYSISSYGNTFGGGTEVEITGS
Turning to B13, the OD in test [1] was 3.12. Further, in test [4], the koff came to 0.00175 s⁻¹.

B14: R3-23 (scFv, not shown: small tags and cut ends)
scFv: QSVKESEGRLVTPGTPLTLTCTVSGFSLSRYAVSWVRQAPGKGLEWIGIIGSGGSTSYATWARGRFTISKTSTTVDLKITSPTTEDTVTYFCGSYYDSHGYAYVSLWGPGTLVTVTSGGGGSGGGGSGGGGSELVLTQTPSPVSGAVGGTVTINCQASQSISTALAWYQQKPGQPPKLLIYSASTLASGVSSRFKGSGSGTGFTLTISDLECADAATYYCQSYYGSSSDNAFGGGTEVVIKRS
As for B14, the OD in test [5] stood at 3.06; in test [6] it was 3.06; in test [1], 3.06; in test [2], 3.02; in test [7], 3.04. The same molecule yielded a koff in test [4] of 0.000408 s⁻¹.

B15: R3-75 rabbit-derived single-chain antibody-His (scFv)
scFv: QSVKESGGRLVTPGTPLTLTCTVSGIDLSSNAMSWVRQAPGEGLEWIGTISTVGKTYFASWAKGRFTISKTSTTVDLRITSPTTEDTATYFCATRYDSYGYAYNYWFGTLWGPGTLVTVTSGGGGSGGGGSGGGGSELDLTQTPPSVSGAVGGTVTIKCQASENINSELAWYQQKPGQRPKLLIYDASKLASGVPSRFSGSGSGTEYTLTISGMQCDDAATYYCQSTYYDGNYVYAFGGGTEVDVTRSHHHHHH
Take B15: in test [8], the Kd is 0.55 nM, the koff stood at 3.7e-05 s⁻¹ and the kon is 67000 M⁻¹ s⁻¹.
